In the data set the target is GST-MKK4 fusion protein (available from Upstate Biotechnologies, Inc).

B1: His-tagged hMEKK2 (polyhistidine-hMEKK2 fusion) (protein)
chain: HHHHHHMDDQQALNSIMQDLAVLHKASRPALSLQETRKAKSSSPKKQNDVRVKFEHRGEKRILQFPRPVKLEDLRSKAKIAFGQSMDLHYTNNELVIPLTTQDDLDKAVELLDRSIHMKSLKILLVINGSTQATNLEPLPSLEDLDNTVFGAERKKRLSIIGPTSRDRSSPPPGYIPDELHQVARNGSFTSINSEGEFIPESMDQMLDPLSLSSPENSGSGSCPSLDSPLDGESYPKSRMPRAQSYPDNHQEFSDYDNPIFEKFGKGGTYPRRYHVSYHHQEYNDGRKTFPRARRTQGTSLRSPVSFSPTDHSLSTSSGSSIFTPEYDDSRIRRRGSDIDNPTLTVMDISPPSRSPRAPTNWRLGKLLGQGAFGRVYLCYDVDTGRELAVKQVQFDPDSPETSKEVNALECEIQLLKNLLHERIVQYYGCLRDPQEKTLSIFMEYMPGGSIKDQLKAYGALTENVTRKYTRQILEGVHYLHSNMIVHRDIKGANILRDSTGNVKLGDFGASKRLQTICLSGTGMKSVTGTPYWMSPEVISGEGYGRKADIWSVACTVVEMLTEKPPWAEFEAMAAIFKIATQPTNPKLPPHVSDYTRDFLKRIFVEAKLRPSADELLRHMFVHYH
Consider B1, for which the “phosphorylation of GST-MKK4 (32P incorporation from [gamma-32P]-ATP, SDS-PAGE, imaging)” value is “comparable to the activity of purified mouse MEKK2, and significantly above the background levels seen with control extracts”.

B2: purified mouse MEKK2 (protein)
chain: MDDQQALNSIMQDLAVLHKASRPALSLQETRKAKPSSPKKQNDVRVKFEHRGEKRILQVTRPVKLEDLRSKSKIAFGQSMDLHYTNNELVIPLTTQDDLDKAVELLDRSIHMKSLKILLVVNGSTQATNLEPSPSPEDLNNTPLGAERKKRLSVVGPPNRDRSSPPPGYIPDILHQIARNGSFTSINSEGEFIPESMDQMLDPLSLSSPENSGSGSCPSLDSPLDGESYPKSRMPRAQSYPDNHQEFTDYDNPIFEKFGKGGTYPRRYHVSYHHQEYNDGRKTFPRARRTQGTSFRSPVSFSPTDHSLSTSSGSSVFTPEYDDSRIRRRGSDIDNPTLTVTDISPPSRSPRAPTNWRLGKLLGQGAFGRVYLCYDVDTGRELAVKQVQFNPESPETSKEVNALECEIQLLKNLLHERIVQYYGCLRDPQEKTLSIFMELSPGGSIKDQLKAYGALTENVTRKYTRQILEGVHYLHSNMIVHRDIKGANILRDSTGNIKLGDFGASKRLQTICLSGTGMKSVTGTPYWMSPEVISGEGYGRKADIWSVACTVVEMLTEKPPWAEFEAMAAIFKIATQPTNPKLPPHVSDYTRDFLKRIFVEAKLRPSAEELLRHMFVHYH
Take B2: the “phosphorylation of GST-MKK4 (32P incorporation from [gamma-32P]-ATP, SDS-PAGE, imaging)” value was “comparable to the activity of purified mouse MEKK2”.

The values are drawn from US20040019918.
